Data: PMC3378324 (Febs Letters, 2012)

T1: Human Alix recombinant construct ALIX(V+PRR), residues 362-760 (human, UniProt Q8WUM4 362-760)
T1 sequence (looked up): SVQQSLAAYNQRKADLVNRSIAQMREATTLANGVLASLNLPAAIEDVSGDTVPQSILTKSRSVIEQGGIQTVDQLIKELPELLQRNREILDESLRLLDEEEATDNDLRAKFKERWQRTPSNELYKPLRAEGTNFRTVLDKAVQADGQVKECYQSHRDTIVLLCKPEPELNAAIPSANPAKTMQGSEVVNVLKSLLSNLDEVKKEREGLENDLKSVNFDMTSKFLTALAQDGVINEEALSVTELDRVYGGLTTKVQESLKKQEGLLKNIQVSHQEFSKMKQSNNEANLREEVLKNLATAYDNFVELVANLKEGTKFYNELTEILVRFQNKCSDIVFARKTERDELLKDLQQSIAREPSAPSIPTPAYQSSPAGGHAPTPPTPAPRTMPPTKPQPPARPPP


Columns and labels:
[1] = target: T1, Human Alix recombinant construct …; experiment: pull-down
[2] = target: T1, Human Alix recombinant construct …; experiment: NMR titration

Binder | binding result [1] | binding result [2]
Fyn(R96I)-SH3-GST (domain or fragment) not shown | binds | 
Fyn(R96I)-SH3, 6xHis C-terminal fusion (domain or fragment) not shown |  | binds
Hck-SH3-GST (domain or fragment) not shown | binds | 
